We go through four substances from publication PMC5215794.

What is called stoichiometry N is the number of molecules, sites or subunits per partner or assembly.

Holding throughout (assay): cross-linking
For experiment [1], the target named is VcINDY K316C (dimer interface cysteine mutant in the cysteine-free background) (Vibrio cholerae) (UniProt Q9KNE0).
Experiment [2] concerns the target VcINDY V68C S304C (dimer interface cysteine mutant in the cysteine-free background) (Vibrio cholerae) (UniProt Q9KNE0).
Experiment [3] has as its target VcINDY N90C (dimer interface cysteine mutant in the cysteine-free background) (Vibrio cholerae) (UniProt Q9KNE0).
For experiment [4], the target named is VcINDY Q86C S95C (dimer interface cysteine mutant in the cysteine-free background) (Vibrio cholerae) (UniProt Q9KNE0).

Consider “VcINDY K316C (dimer interface cysteine mutant in the cysteine-free background) (from UniProt Q9KNE0 14-462) (natural protein)”, for which the stoichiometry N in experiment [1] stood at 2.
“VcINDY V68C S304C (dimer interface cysteine mutant in the cysteine-free background) (from UniProt Q9KNE0 14-462) (natural protein)”: the stoichiometry N in experiment [2] was found to be 2.
With “VcINDY N90C (dimer interface cysteine mutant in the cysteine-free background) (from UniProt Q9KNE0 14-462) (natural protein)”, in experiment [3], the stoichiometry N stood at 2.
“VcINDY Q86C S95C (dimer interface cysteine mutant in the cysteine-free background) (from UniProt Q9KNE0 14-462) (natural protein)”: the stoichiometry N in experiment [4] was determined as 2.
